Experimental data: US20180280504A1, “GLYCAN-INTERACTING COMPOUNDS AND METHODS OF USE” (SIAMAB THERAPEUTICS, INC., priority 2014, published 2018)

What was measured:
[1] = PAA-glycan ELISA, AcSTn-PAA; format: binding; details: 200 ng/well PAA antigen; 1:5 dilutions from 1 μM
Procedure: 18D2 and 18C7 antibodies were further characterized by ELISA comprising antigens other than BSM. ELISAs were carried out according to Example 2, with the exception that ELISA plates were coated with biotinylated polyacrylamide (PAA) particles comprising either AcSTn (AcSTn-PAA), GcSTn (GcSTn-PAA) or Tn (Tn-PAA) as antigens. These particles present the antigens in a multivalent format. Briefly, 96-well ELISA plates were coated with 200 ng/well of each PAA antigen and blocked with PBS with 1% OVA. Antibodies were serially diluted at 1:5 in PBS with 1% OVA using an initial concentration of 1 μM. After blocking, antibodies were added to the plates and plates were incubated for 1.5 hours at room temperature. Binding of anti-STn antibodies was detected using a goat anti-mouse IgG-HRP conjugated antibody (Jackson Immunoresearch Laboratories, West Grove, Pa.). The reaction was developed by addition of HRP substrate and hydrogen peroxide. The reaction was then stopped by the addition of sulfuric acid (1.6 M). Optical densities were measured at 490 nm. A dose-response curve was generated using readings at each concentration tested and a non-linear regression curve was generated with four-parameter modeling to determine EC50 values for each antibody.

[2] = Glycan array, Tn and other glycans; format: binding; details: glycan microarray
Procedure: Optimized glycan arrays comprise 71 chemically synthesized and well-defined glycans, most of which comprise Neu5Ac and Neu5Gc glycan pairs.
300 ml of epoxy blocking buffer is prepared by combining 15 ml of 2 M Tris buffer (pH 8) with 0.9 ml of 16.6 M ethanolamine and 284.1 ml of distilled water. The solution was brought to a final pH of 9.0 with HCl. The solution is filtered using a 0.2 μM nitrocellulose membrane. The epoxy buffer solution as well as 1 L of distilled water are pre-warmed to 50° C. Glass slides are arranged in a slide holder and quickly submerged in a staining tub with the warmed epoxy blocking buffer. Slides are incubated in the epoxy blocking buffer for 1 hour at 50° C. with periodic shaking to deactivate epoxy binding sites. Next, slides are rinsed and blocked with PBS with 1% OVA at 25° C. for one hour. Serum samples with polyclonal antibodies (1:1000) or purified monoclonal antibodies (1 ug/mL), are diluted in PBS with 1% OVA and added to the glycan array for one hour at 25° C. After extensive washing, binding of antibodies are detected by incubating glycan microarray slides with Cy3-conjugated anti-mouse IgG (Jackson Immunoresearch, West Grove, Pa.) for one hour. Slides are then washed extensively, dried and scanned with a Genepix 4000B scanner (Laser at 100%; gain at 350; 10 μm pixels). […]

E3-STn tumors [3] = experiment: E3-STn murine breast tumor allograft model, tumor volume; format: in vivo, mouse; details: for Average Tumor Volume (mm^3): 7G9-1A8 25 mg/kg i.p. twice weekly for 3 weeks, Paclitaxel daily for 5 days
Procedure: 3 test articles were evaluated during the study.
(§1) Standard deviation values are listed in parenthesis.

[4] = E3-STn allograft model, complete blood count (CBC); format: in vivo, mouse; parameters: White blood cells Level: unit not given here; details: CBC at end of study, 5 mice
Procedure: At the end of the study, a complete blood count (CBC) was obtained for 5 mice treated with antibody as well as 3 mice treated with vehicle control. Blood was collected from all mice via terminal cardiac puncture and processed for plasma. Blood was placed in EDTA microtainer tubes (BD & Co., Franklin Lakes, N.J.) then centrifuged. Plasma layers were then removed and snap frozen in cryo vials (Thermo-Fisher Scientific, Rochester, N.Y.) and stored at −80° C. until analysis. Analysis was carried out to look for levels of a variety of factors.

E3-STn tumors [5] = experiment: E3-STn allograft model, second round study, tumor volume; format: in vivo, mouse; details: for Average Tumor Volume: 25 mg/kg i.p. twice weekly
Source text: as §1

[6] = tested on: MDA-MB-231-STn Human Breast Tumor Xenograft; experiment: MDA-MB-231-STn xenograft model, clinical observations of tumors; format: in vivo, mouse; details: 5 mg/kg i.p. once weekly
Procedure: Animals were inoculated in the subcutaneous right flank with 5×10^6 breast tumor cells (MDA-MB-231-STn) in matrigel, mean tumor size was 175-225 mm^3 at study initiation. Animals were given either vehicle or antibody drug conjugates (5 mg/kg) by intraperitoneal injection once weekly. Tumor volume and percent body weight change were determined once weekly until study termination. The study was terminated when the tumor in the vehicle control animal reached a mean tumor weight ≥1500 mm^3. SE refers to “standard error.”
Clinical observations of tumor shape, size and disposition were noted throughout the study.

B1: 18C7: anti-STn mouse monoclonal, IgG2c κ, from mouse #4436; VH SEQ ID NO: 4, VL SEQ ID NO: 5 (antibody, V domains shown)
VH: QVTLKESGPGILQPSQTLSLTCSFSGFSLSTFGMGVGWIRQPSGKGLEWLAHIWWDDDKYYNPALKSRLTISKDTSKNQVFLKIANVDTADTATYYCARIAYYYGSERDYWGQGTTLTVSS
VL: QIVLTQSPAIMSASPGEKVTMTCSASSSISYMHWYHQKPGTSPKRWIYDTSKLASGVPARFSGSGSGTSYSLTISSMEAEDAATYYCHQRSSYTFGGGTKLEIKR
Q: What does the source list for B1?
A: EC50 [1]: 4.1 nM; binding to Tn antigen or other glycans [2]: No binding

B2: 7G9: anti-STn mouse monoclonal, IgG2b κ, from mouse #4407; VH SEQ ID NO: 12, VL SEQ ID NO: 9 (antibody, V domains shown)
VH: QVQLKESGPGLVAPSQNLSITCTVSGFSLTSYGVNWVRQPPGKGLEWLGVIWGDGSTNYHSALISRLIISKENSKSQVFLKLNSLQTNDTATYYCTKGFVYWGQGTLVTVSA
VL: QIVLTQSPAIMSASPGEKVTMTCSASSSVSYMHWYQQKSGTSPKRWIFDTSKLASGVPARFSGSGSGTSYSLTISSMEAEDAATYYCQQWSSNLLTFGAGTKLELK
Q: For B2, which “average tumor volumes as compared to Paclitaxel and vehicle control” value (E3-STn tumors [3]; 25 mg/kg i.p. twice weekly for 3 weeks) is on record?
A: greatly reduced

Q: What about the “Average Tumor Volume (mm^3)” value (E3-STn tumors [3]; day 1) of the same molecule?
A: 112.4 mm^3

Q: What about the “Average Tumor Volume (mm^3)” value (E3-STn tumors [3]; day 4) of the same molecule?
A: 148.7 mm^3

Q: And the “Average Tumor Volume (mm^3)” value (E3-STn tumors [3]; day 6)?
A: 161.9 mm^3

Q: What about the “Average Tumor Volume (mm^3)” value (E3-STn tumors [3]; day 8) of the same molecule?
A: 152.8 mm^3

Q: What about the “Average Tumor Volume (mm^3)” value (E3-STn tumors [3]; day 11) of the same molecule?
A: 136.3 mm^3

Q: What about the “Average Tumor Volume (mm^3)” value (E3-STn tumors [3]; day 13) of the same molecule?
A: 118.4 mm^3

Q: What about the “Average Tumor Volume (mm^3)” value (E3-STn tumors [3]; day 15) of the same molecule?
A: 105.1 mm^3

Q: What about the “Average Tumor Volume (mm^3)” value (E3-STn tumors [3]; day 18) of the same molecule?
A: 99.5 mm^3

Q: And the “Average Tumor Volume (mm^3)” value (E3-STn tumors [3]; day 20)?
A: 91.7 mm^3

Q: And the “Average Tumor Volume (mm^3)” value (E3-STn tumors [3]; day 22)?
A: 105.2 mm^3

Q: And the “Average Tumor Volume (mm^3)” value (E3-STn tumors [3]; day 26)?
A: 102.8 mm^3

Q: And the “Average Tumor Volume (mm^3)” value (E3-STn tumors [3]; day 27)?
A: 107.4 mm^3

Q: What about the “Average Tumor Volume (mm^3)” value (E3-STn tumors [3]; day 29) of the same molecule?
A: 147.1 mm^3

Q: And the “Average Tumor Volume (mm^3)” value (E3-STn tumors [3]; day 32)?
A: 160.6 mm^3

Q: What about the “Average Tumor Volume (mm^3)” value (E3-STn tumors [3]; day 34) of the same molecule?
A: 164.7 mm^3

Q: And the “Average Tumor Volume (mm^3)” value (E3-STn tumors [3]; day 36)?
A: 212.1 mm^3

Q: What about the “Average Tumor Volume (mm^3)” value (E3-STn tumors [3]; day 39) of the same molecule?
A: 206.6 mm^3

Q: What about the “Average Tumor Volume (mm^3)” value (E3-STn tumors [3]; day 41) of the same molecule?
A: 235.3 mm^3

Q: What about the “% Lymphocytes Level” value [4] of the same molecule?
A: 44.4%

Q: And the “% Monocytes Level” value [4]?
A: 4.6%

Q: And the “% Neutrophils (Segmented) Level” value [4]?
A: 51.0%

Q: What about the “Hematocrit Level” value [4] of the same molecule?
A: 46.9%

Q: What about the “Hemoglobin Level” value [4] of the same molecule?
A: 16.0 g/dL

Q: What about the “Lymphocytes Level” value [4] of the same molecule?
A: 5.6 10^9/L

Q: What about the “Mean Corpuscular Hemoglobin Concentration Level” value [4] of the same molecule?
A: 34.2 g/dL

Q: What about the “Mean Corpuscular Hemoglobin Level” value [4] of the same molecule?
A: 16.2 pg

Q: And the “Mean Corpuscular Volume Level” value [4]?
A: 47.4 fL

Q: And the “Mean platelet volume Level” value [4]?
A: 7.4 fL

Q: And the “Monocytes Level” value [4]?
A: 0.7 10^9/L

Q: What about the “Neutrophils Level” value [4] of the same molecule?
A: 7.6 10^9/L

Q: What about the “Platelet Cell Distribution Width Level” value [4] of the same molecule?
A: 32.2%

Q: And the “Platelet count Level” value [4]?
A: 712.2 10^3

Q: And the “Red Cell Distribution Width Level” value [4]?
A: 19.0%

Q: And the “Red blood cells Level” value [4]?
A: 9.9 10^6/L

Q: What about the “White blood cells Level” value [4] of the same molecule?
A: 13.9

Q: What about the “Average Tumor Volume” value (E3-STn tumors [5]; day 1 of treatment) of the same molecule?
A: 125.9 mm^3

Q: What about the “Average Tumor Volume” value (E3-STn tumors [5]; day 5 of treatment) of the same molecule?
A: 135.2 mm^3

Q: And the “Average Tumor Volume” value (E3-STn tumors [5]; day 8 of treatment)?
A: 144.5 mm^3

Q: What about the “Average Tumor Volume” value (E3-STn tumors [5]; day 12 of treatment) of the same molecule?
A: 157.2 mm^3

Q: And the “Average Tumor Volume” value (E3-STn tumors [5]; day 15 of treatment)?
A: 169.2 mm^3

Q: And the “Average Tumor Volume” value (E3-STn tumors [5]; day 19 of treatment)?
A: 178.0 mm^3

Q: What about the “Average Tumor Volume” value (E3-STn tumors [5]; day 22 of treatment) of the same molecule?
A: 186.4 mm^3

Q: What about the “Average Tumor Volume” value (E3-STn tumors [5]; day 26 of treatment) of the same molecule?
A: 195.9 mm^3

Q: What about the “Average Tumor Volume” value (E3-STn tumors [5]; day 29 of treatment) of the same molecule?
A: 199.4 mm^3

Q: And the “Average Tumor Volume” value (E3-STn tumors [5]; day 33 of treatment)?
A: 201.5 mm^3

Q: And the “Average Tumor Volume” value (E3-STn tumors [5]; day 36 of treatment)?
A: 206.5 mm^3

Q: And the “Average Tumor Volume” value (E3-STn tumors [5]; day 40 of treatment)?
A: 212.9 mm^3

Q: What about the “Average Tumor Volume” value (E3-STn tumors [5]; day 43 of treatment) of the same molecule?
A: 243.7 mm^3

Q: And the “Average Tumor Volume” value (E3-STn tumors [5]; day 47 of treatment)?
A: 277.5 mm^3

Q: What about the “Average Tumor Volume” value (E3-STn tumors [5]; day 50 of treatment) of the same molecule?
A: 313.4 mm^3

Q: And the “average tumor volumes as compared to vehicle control” value (E3-STn tumors [5]; second round study, 25 mg/kg i.p. twice weekly for 7 weeks)?
A: greatly reduced

B3: S3F: 3F1 variable domains combined with IgG2a constant domains; heavy chain SEQ ID NO: 63, light chain SEQ ID NO: 64 (antibody)
heavy: QVQLQQSDAELVKPGASVKISCKASGYTFTDHAIHWVKQKPEQGLDWIGYISPGNGDIKYNEKFKDKVTLTADKSSSTACMHLNSLTSEDSAVYFCKRSLLALDYWGQGTTLTVSSAKTTAPSVYPLAPVCGDTTGSSVTLGCLVKGYFPEPVTLTWNSGSLSSGVHTFPAVLQSDLYTLSSSVTVTSSTWPSQSITCNVAHPASSTKVDKKIEPRGPTIKPCPPCKCPAPNLLGGPSVFIFPPKIKDVLMISLSPIVTCVVVDVSEDDPDVQISWFVNNVEVHTAQTQTHREDYNSTLRVVSALPIQHQDWMSGKEFKCKVNNKDLPAPIERTISKPKGSVRAPQVYVLPPPEEEMTKKQVTLTCMVTDFMPEDIYVEWTNNGKTELNYKNTEPVLDSDGSYFMYSKLRVEKKNWVERNSYSCSVVHEGLHNHHTTKSFSRTPGK
light: DIVMTQSHKFMSTSVGDRVSITCKASQDVGTNIAWYQQKPGRSPKVLIYSASTRHTGVPDRFTGSGSGTDFTLTISNVQSEDLTDYFCQQYSSFPLTFGVGTKLELKRADAAPTVSIFPPSSEQLTSGGASVVCFLNNFYPKDINVKWKIDGSERQNGVLNSWTDQDSKDSTYSMSSTLTLTKDEYERHNSYTCEATHKTSTSPIVKSFNRNEC
Q: Which “clinical observations of tumor shape, size and disposition” value [6] does the source give for B3 here?
A: fewer severe tumors with fluid secretion
